Laboratory results as given in US20220119534A1 (DRAGONFLY THERAPEUTICS, published 2022).
“And” between values parts separate entries of the source, which are not always exact repeats. Equal entries are not always repeated.

Assays:
mFc-cNKG2D [1] = molecular target: T1, mFc-cNKG2D (cynomolgus monkey, UniProt P61252 73-216); test: SPR Biacore 37 C; mFc-tagged cyno NKG2D dimer, TriNKET as analyte; 1:1 kinetic fit
T1 construct: extracellular domain; Made in house (Dragonfly Tx); also called recombinant cyno NKG2D extracellular domain (ECD); mFc-tagged cyno NKG2D dimer; not shown: mouse Fc tag
T1 sequence (looked up): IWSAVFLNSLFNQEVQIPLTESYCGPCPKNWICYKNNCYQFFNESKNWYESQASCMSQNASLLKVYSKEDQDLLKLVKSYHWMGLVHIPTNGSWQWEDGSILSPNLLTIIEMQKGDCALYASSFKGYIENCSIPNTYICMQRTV

Human CLEC12A-His [2] = molecular target: T2, Human CLEC12A-His (human, UniProt Q5QGZ9 65-265); test: SPR Biacore 8K 37 C; TriNKET captured on anti-hFc chip, hCLEC12A-His as analyte; 1:1 fit; un-oxidized control, n=2
T2 construct: Recombinant soluble protein made in house (Dragonfly Tx); The hCLEC12A spot of the HuProt array is written under this molecule as well; also called hCLEC12A-His; hCLEC12A; not shown: His tag
T2 sequence: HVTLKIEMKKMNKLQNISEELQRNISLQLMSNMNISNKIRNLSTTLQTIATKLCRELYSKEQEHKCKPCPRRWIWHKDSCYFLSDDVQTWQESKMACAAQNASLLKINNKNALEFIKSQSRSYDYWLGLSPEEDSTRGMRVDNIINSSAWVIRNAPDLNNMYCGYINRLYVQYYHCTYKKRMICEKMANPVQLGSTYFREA

Human CLEC12A-His [3] = molecular target: T2, Human CLEC12A-His; test: SPR Biacore 8K 37 C; TriNKET captured on anti-hFc chip, hCLEC12A-His as analyte; 1:1 fit; after 2 wks 40 C at pH 8.0, n=2
mFc-cNKG2D [4] = molecular target: T1, mFc-cNKG2D; test: SPR Biacore 37 C; mFc-tagged cyno NKG2D dimer, TriNKET as analyte; steady state affinity fit; average of 4

koff (mFc-cNKG2D [1]): 0.147 s⁻¹ and 0.136 s⁻¹ and 0.145 s⁻¹ and 0.135 s⁻¹
kon (mFc-cNKG2D [1]): 177000 M⁻¹ s⁻¹ and 164000 M⁻¹ s⁻¹ and 156000 M⁻¹ s⁻¹ and 176000 M⁻¹ s⁻¹
Kd (Human CLEC12A-His [2]): 1.1 nM
koff (Human CLEC12A-His [2]): 0.000858 s⁻¹
kon (Human CLEC12A-His [2]): 799000 M⁻¹ s⁻¹
Kd (Human CLEC12A-His [3]): 1 nM
koff (Human CLEC12A-His [3]): 0.000845 s⁻¹
kon (Human CLEC12A-His [3]): 835000 M⁻¹ s⁻¹
Kd (mFc-cNKG2D [4]): 828 nM
B1: F3'-1602 TriNKET (bispecific antibody, human IgG1, kappa)
chain: QLQLQESGPGLVKPSETLSLTCTVSGFSLTNYGLHWIRQPPGKCLEWIGVIWSGGKTDYNPSLKSRVTISKDTSKNQFSLKLSSVQAADTAVYYCAKYDYDDSLDYWGQGTLVTVSSGGGGSGGGGSGGGGSGGGGSDIQMTQSPSSLSASVGDRVTITCHASQNINFWLSWYQQKPGKAPKLLIYEASNLHTGVPSRFSGSGSGTRFTLTISSLQPEDIATYYCQQSHSYPLTFGCGTKLEIKGSDKTHTCPPCPAPELLGGPSVFLFPPKPKDTLMISRTPEVTCVVVDVSHEDPEVKFNWYVDGVEVHNAKTKPREEQYNSTYRVVSVLTVLHQDWLNGKEYKCKVSNKALPAPIEKTISKAKGQPREPRVYTLPPCRDELTKNQVSLTCLVKGFYPSDIAVEWESNGQPENNYKTTPPVLVSDGSFTLYSKLTVDKSRWQQGNVFSCSVMHEALHNHYTQKSLSLSPG
heavy: EVQLVESGGGLVKPGGSLRLSCAASGFTFSSYSMNWVRQAPGKGLEWVSSISSSSSYIYYADSVKGRFTISRDNAKNSLYLQMNSLRAEDTAVYYCARGAPIGAAAGWFDPWGQGTLVTVSSASTKGPSVFPLAPSSKSTSGGTAALGCLVKDYFPEPVTVSWNSGALTSGVHTFPAVLQSSGLYSLSSVVTVPSSSLGTQTYICNVNHKPSNTKVDKKVEPKSCDKTHTCPPCPAPELLGGPSVFLFPPKPKDTLMISRTPEVTCVVVDVSHEDPEVKFNWYVDGVEVHNAKTKPREEQYNSTYRVVSVLTVLHQDWLNGKEYKCKVSNKALPAPIEKTISKAKGQPREPQVCTLPPSRDELTENQVSLTCLVKGFYPSDIAVEWESNGQPENNYKTTPPVLDSDGSFFLYSWLTVDKSRWQQGNVFSCSVMHEALHNHYTQKSLSLSPG
light: DIQMTQSPSSVSASVGDRVTITCRASQGISSWLAWYQQKPGKAPKLLIYAASSLQSGVPSRFSGSGSGTDFTLTISSLQPEDFATYYCQQGVSFPRTFGGGTKVEIKRTVAAPSVFIFPPSDEQLKSGTASVVCLLNNFYPREAKVQWKVDNALQSGNSQESVTEQDSKDSTYSLSSTLTLSKADYEKHKVYACEVTHQGLSSPVTKSFNRGEC
notes: Trispecific F3' format: CLEC12A scFv-Fc paired with NKG2D Fab-Fc; Stressed and control samples of the stability studies are the same molecule; also called AB0237
